According to paper PMC5744401:

Legend:
Settings in all cases: EMSA: 0.3 nM DIG-labeled probe; buffer, salt, pH and temperature as in Zhu et al. 2016 (not given)
[1] = target: T1, His6-AvaR1 (Streptomyces avermitilis) (UniProt Q82H41); assay: EMSA
T1 sequence: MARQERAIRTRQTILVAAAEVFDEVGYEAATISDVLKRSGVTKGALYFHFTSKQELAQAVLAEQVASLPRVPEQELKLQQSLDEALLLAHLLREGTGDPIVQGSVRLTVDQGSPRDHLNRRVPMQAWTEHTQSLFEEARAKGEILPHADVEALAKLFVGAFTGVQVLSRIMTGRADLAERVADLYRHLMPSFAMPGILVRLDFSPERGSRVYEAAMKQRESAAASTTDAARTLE

[2] = test system: His6-AvaR1 (Streptomyces avermitilis); assay: competition EMSA
[3] = target: T2, His6-AvaR2 (Streptomyces avermitilis) (UniProt Q82H44); assay: EMSA
T2 sequence: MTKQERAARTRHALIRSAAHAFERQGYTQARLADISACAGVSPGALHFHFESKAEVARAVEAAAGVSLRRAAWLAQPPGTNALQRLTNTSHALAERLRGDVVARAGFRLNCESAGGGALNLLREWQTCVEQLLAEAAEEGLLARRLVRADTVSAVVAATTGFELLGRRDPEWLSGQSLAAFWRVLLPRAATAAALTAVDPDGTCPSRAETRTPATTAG

[4] = target: T1, His6-AvaR1 (Streptomyces avermitilis); assay: competition EMSA
[5] = target: T3, GST-AvaR2 (Streptomyces avermitilis) (UniProt Q82H44); assay: EMSA
T3 sequence: T2 sequence

[6] = target: T4, His6-AvaR1;GST-AvaR2 (Streptomyces avermitilis;Streptomyces avermitilis) (UniProt Q82H41+Q82H44); assay: EMSA
T4 sequence 1: T1 sequence
T4 sequence 2: T2 sequence

[7] = target: T1, His6-AvaR1 (Streptomyces avermitilis); assay: DNase I footprinting

## TTCAACTGACCGTCCCGCACGTAGAGTTCTGGAGTCACCCGCACATGACCGTACGCAAGAACCAGGCGACCCTGACGGCCGACGAGAAGCGGCGCTTCGTCGACGCGCTCGTGGCGCTCAAGCGCAGTGGCCGCTACGACGAGTTCGTCACGACCCACAACGCCTTCATCATGGGCGACACCGACAGCGGCGAACGCACGGGCCATCGTTCGCCTTCCT (double strand) [melC2p]
[1]
  binding: no binding

## avaR2p
[2]
  binding signal (affinity rank of 5 (1 = strongest)): 2

## CTCGGGCGTGATCCGACTGCGGCGCACCGTTGCGGTCTCAGTCATCGCACTCGCCTCTCCTGCTTCGAACGACACGGTTTCCGGTTGCGTACGTCTACCCGTACGTCTTCCTCGTACCTTCCTGAAGATACCCCGAGAGCGAGCGAAACGAAACCGTTTCGTACGTGTCGTGGGTCACGCACATGTTTTCACAAGTTGCCGGGGCCCGTCGCGCGGAAAAGCATGGGTTAGGTGAACCCCGAGTCCGA (double strand) [aveTp]
[3]
  binding: binds
[1]
  binding: binds

## TTGTGCCCTGTGTGTGCGCCATGGGCATACCGTCCGGGCGGAATGCCGGGTTCCGGCATCGAACGTCGTGCGATTCGGCAGTTCGAGCGATACCGGATGGTTTCGCTTCTGTTCGATTGCGGGGTGTGGTGTAGGCCAGTACGCGAAACTCGCCGGAAAAGGGGCACCCGCCGCCCGTAGGCTGGGAGGCAT (double strand) [3560p]
[1]
  binding: binds

## TGCGGTGACCCCCATCTCGATCAGTTCGGTGGGGTGAAACCGCGTGAGCCGGTTGTCGTCCAGGCTCTGGGGCCCGGTGTCCGCGAGGGCGGGGAACGCCCTGAGGGAGGGGTAGGCATAAGGAAGGTACTCGGCGAGGCCGCTGCTGTGGTTGATCAACATCCGGACCGTGATCGCGTCACCGCGTTCTCCGGGAACCAGCCTCGGAAGGTACCGGCCGATCGGAGTGTCAAGACCGATCAGGTCACCGACGAGGAGTGCAACGC (double strand) [2051p]
[1]
  binding: no binding

## CCCTCGACCGGATTGTGGGAGCATCGTGCCATTCCAAGTGGCCGCTATGTGACCGAGTGCCCCCGATCGGCCCCAGATGGCGGGTTAAGGCTAATTAAGGAAACCCCCTGACGCCCCCTGACGGGGTCTGCTCACCCGCACGGCATGATGGCCCCCATGCGTGCGGTGGTGCAGAGGGTGGACGGCGCGAGCGTCGTCGTGGAAGGCGAGAACGGGCCGGAGACGGTCGGTGAGATCAACGGCGAGG (double strand) [amfCp]
[1]
  binding: binds

## CCGCTGGAGTCTGAGAAGCCATGGAAGCATTCACCACGCACACCGGCCGGGCCGTCCCGCTGCGCCGCAGCAACGTCGACACCGACCAGATCATCCCCGCCCACTGGCTCAAGAAGGTCACCAGGGACGGTTTCGAGGACGGGCTGTTCGAGGCCTGGCGCAAGGACGAGTCCTTCATCCTCAACCG (double strand) [leuDp]
[1]
  binding: binds

## TCAACCACCGTCATGTAGGGCGTACGCCCTTGCTGTACGGACCCGGTGTGTTGACGCCCGGTGCCGCGAGCGCACCCCCGCCCGCTCACGGCACCGGACTTCTCGGTGTTCCGGATGACGTCGTGCAGACGCGTGACAACTGCGCCAGTGCTGGTGCTGTGCAGCGTGTTCATCTCGCGCCCCCCGTCGTGGAGTCCGGTATCCCTGCGGTCTTGCCCTGCTGTCCTGCGGTGGTGCTGCCTTGCTTGTGTCGAAAAGCTTGCC (double strand) [probe 1]
[1]
  binding: no binding

## GAACTGGGTGACGAGGAGCTTCTCGCGAAGCTTCGCGAAGCCAAGGAAGAGCTGTTCAACCTCCGCTTCCAGGCGGCGACCGGTCAGCTCGAGAACCACGGTCGGCTCAAGGCCGTCCGCAAGGACATCGCGCGGATCTACACCCTGATGCGTGAGCGCGAGCTGGGCATCGAGACGGTGGAGAGCGCCTGATGAGCGAGAGCAACGTGACTGAGACCAACGAGCAGCGCGGTTTCCGCAAGACCCGTGAGGGTCTGGTCGTCAGCGACAAGATGGACAA (double strand) [rpsQp]
[1]
  binding: binds

## ATCCACGCTTCTCGCTCCGCCCAGTGTACGGCGCCGCGCGGACAGCGGCCGACCGGTTTTCCGGGGCCCGCGCGGAAGGCGGCAGGGGGGCCGGTACGGGCCGCGGACTGACCCGAATGGCGA (double strand) [ileSp]
[1]
  binding: no binding

## GCGGAAGGCGGCTGACCAGAGGGCCCTGCAAGAAACCAGCATAGCGGTTTGTTTGTGGCGCCCGTCACCACTTCGCCGACGCGGTACCCCCGGAGGCCAGGCACCGGTCACTGCCGCCGCCCGCGCTGCCCGCTGCCGCCGCCGAGCCGTACCGCGCGGCTCGGGCGTCGCGCATGCCGTCAGGCCCCCGGCACCTCCCTG (double strand) [avaR2p]
[4]
  binding signal (affinity rank of 5 (1 = strongest)): 2
[1]
  binding: binds

## GGGTAGTGTCAAGGTCGCTGACTTTGATGATTAACTGATGATCGTGGGATTCTGAGGTGGTGTTCGCGAGGGTGAAGGAGTTCCTTCCTGGAGACATCCGTGCCCCGGATGGCGGTCCACAATTCACGAGTGGGATGCGCAGTGGGTCGCGTGCTGCAACACCGAATGGAATACCGGGTGACCGGTATGTATGGC (double strand) [aveRp2]
[5]
  binding: binds
[6]
  binding: binds
[1]
  binding: binds

## aveRp
[2]
  binding signal (affinity rank of 5 (1 = strongest)): 3

## GCCCTCGTCCCAGTAGAAGACGGGTCGCCGGGTTCCTGGGCCCGTGGCCCGCATGCGCAGCTCGACCTGGGTGATCACCTCGGTCTGCGTGGTCTCGACTCATGACCGCGCCGGTCAGCGCCTCCACAAGTCGTCCAAGTTTCAGCCGGTGGCAGACATTCCGTGA (double strand) [wbpAp]
[1]
  binding: no binding

## GAGCTTCTCCCTGGCTTGGGACGGGCTGACGTGAACCACGGGACCCGAGAAGGGCTGAGGAAGGGCTGGAGAGCTGCGGAAGAGCTGCGGAGGAGCTGCGGAAGAGCTGCGGAAGAGCTGGAGGTCAAAGATACGTACTAGACGGTTTTGTCTTCAAGTCCCTCTTGCGGTCAAGGGTCATCCCTTACAAGGGAGTTGGGGGTGAGATATGTGTTTTTGAGTGGTTTGTGAGAGGGCG (double strand) [acop]
[4]
  binding signal (affinity rank of 5 (1 = strongest)): 4
[1]
  binding: binds

## ACTGATGCGCGAGAAAACCGCACAAGCGGTTTGTTAAAGTTGCTGGACCCCCATCAGCAACGGAGCGCCCGATGGTCAAGCAGGTCAGACAGGAACGCGCGATCCGCACGCGCAACGCCTTGATCGAGTCC (double strand) [avaR3p]
[4]
  binding signal (affinity rank of 5 (1 = strongest)): 1
[1]
  binding: binds

## avaR3p
[2]
  binding signal (affinity rank of 5 (1 = strongest)): 1

## GCCACACGCACCCTCCGCACCAGCCCGACCAGCGGGACACCGTCCCGACCAGTGGGACACCGTCCGGATCGCGGGACACCGTCCCGACCAGCGGGAAAAGACCAAGCGGTTCGCACCCTAACAGCGACGATCCTCCACTCCACCGCCGAAGACAGGCCCGGTCCTGACCGGGACGATAAAACCAGCTGAACGGTTTTTCAATGCTCCCCTCGCCCTCTCACAAACCACTCAAAAACACATATCTCACCCCCAACTCCC (double strand) [avaR1p]
[4]
  binding signal (affinity rank of 5 (1 = strongest)): 5
[1]
  binding: binds

## avaR1p
[2]
  binding signal (affinity rank of 5 (1 = strongest)): 5

## GCTCTTCGTGCTCACCGTCTTCGTCGCGTACGCGTACGTATGGCGGCGCGGCGGTCTGGAATGGGACTGAGGGGCCTTTAACGACATGGGACTCGAAGAAAAGCTGCCGAGCGGATTCCTGCTGACGAC (double strand) [nuoB1p]
[1]
  binding: binds

## GCCACACGCACCCTCCGCACCAGCCCGACCAGCGGGACACCGTCCCGACCAGTGGGACACCGTCCGGATCGCGGGACACCGTCCCGACCAGCGGGAAAAGACCAAGCGGTTCGCACCCTAACAGCGACGATCCTCCACTCCACCGCCGAAGACAGGCCCGGTCCTGACCGGGACGATAAAACCAGCTGAACGGTTTTTCAATGCTCCCCTCGCCCTCTCACAAACCACTCAAAAACACATATCTCACCCCCAACTCCC (double strand) [avaR1 footprint probe]
[7]
  binding: binds

## GTGCTGCAACACCGAATGGAATACCGGGTGACCGGTATGTATGGCGGTGCGGTGACCGCGGAAACGGCTCGGGCGGATTGACCGCCCGAGCCGGAGGAGAAGGCCATCGCCGCACCCGCGAGCAAGGGTCCAGAGGGACGGCGGCGCGAAGGCGGCCTGGCCTATGGGGAGTTCGGAGGACCAGGCGTCA (double strand) [aveRp]
[4]
  binding signal (affinity rank of 5 (1 = strongest)): 3
[1]
  binding: binds
